Data set [1] concerns the molecule itself. In words: DNase I footprinting on the DHFR-E probe (self-association on DNA, inferred). The source says:
Materials and Methods: Probe DHFR-E-top was generated by digesting pUC/E with Bam HI, end-labeling by Klenow fill-in in the presence of [α-^32P]-dATP, and digesting with Bgl II. Probe DHFR-E-bottom was generated by digesting pUC/E with Bgl II, end-labeling by Klenow fill-in in the presence of [α-^32P]-dATP, and digesting with Bam HI. Footprinting probes were purified by gel electrophoresis and Geneclean (Bio 101), and resuspended in distilled water at a specific activity of 50,000 dpm/ul. Binding reactions (50 ul) that contained 50,000 dpm of labeled probe were assembled as for gel mobility shift assays. After incubation at 37° C. for 20 min and on ice for 15 min, one volume of a 5 mM CaCl_2, 10 mM MgCl2 solution was added for one minute at room temperature, followed by the addition of 0.02 units of DNase I for 1 min. Footprinting reactions were stopped with the addition of 90 ul prewarmed stop buffer (200 mM NaCl, 30 mM EDTA, 1% SDS), extracted with phenol, ethanol precipitated, and resuspended in sequencing dye buffer. Samples were resolved by electrophoresis at 65 W for 1.5 to 3.0 hours on denaturing 8% polyacrylamide gels. The gel was dried, exposed to Kodak XAR film at –80° C., and signals were detected by autoradiography.
Fusion proteins containing hand Z2 induced multiple hypersensitive sites on the top strand of DHFR-E, including the prominent site at position 3483.

Data set [2] deals with the molecule itself. Put plainly: gel shift multimers on DNA probe (self-association on DNA). Background: In EMSA bound probe runs differently from free probe, usually more slowly.

B1: GST-Z23 (GST fused to hands Z2 and Z3 of RIP60) (other)
chain: PRPGGDAVDRPFQCACCGKRFRHKPNLIAHRRVHTGERPHQCPECGKRFTNKPYLTSHRRIHTGEKPYPCKECGRRFRHKPNLLSHSKIHKRSEGSAQAAPGPGSPQLPAGPQESAAEPTPAVPLKPAQEPPPGAPPEHPQDPIEAPPSLYSCDDCGRSFRLERFLRAHQRHDTGERPFTCAECGKNFGKKTHLVAHSPVHSGERPFACEECGRRFSQGSHLAAHRPDHAPDRPFVCPDCGKAFRHKPYLARHRRIHTGEKPYVCPDCGKAFSQKSNLVSHRRIHTGERPYACPDCDRSFSQKSNLITHRKSHIRDGAFCCAICGQTFDDEERLLAHQKKHDV
notes: The start of the range is derived from the domain limits; nucleotide 682 would give residue 228; also called pCH61 product; not shown: glutathione-S-transferase (GST) purification tag from vector pGEX-2T
In the case of B1, the binding result in data set [1] was “binds”.

B2: GST-Z2 (GST fused to the Z2 domain of RIP60, zinc fingers 6-8 plus 37 amino acids of the proline rich region) (other)
chain: GGDAVDRPFQCACCGKRFRHKPNLIAHRRVHTGERPHQCPECGKRFTNKPYLTSHRRIHTGEKPYPCKECGRRFRHKPNLLSHSKIHKRSEGSAQAAPGPGSPQLPAGPQESAAEPTPAVPLKPAQ
notes: Expressed in E. coli BL21 and purified on glutathione beads; also called GST-Z2(P12); GST-Z2-P12; not shown: glutathione-S-transferase (GST) purification tag, 26 kD, at the amino terminus; from vector pGEX-2T
As for B2, the binding result in data set [2] was “binds”.

Values taken from US6780986 (UNIVERSITY OF VERMONT AND STATE AGRICULTURAL COLLEGE, dated 2004).
